Measurements taken from PMC4051761.

Experiments:
[1] = target: Gag.FP: unprocessed HIV-1 Gag polyprotein carrying eCFP or eYFP between MA and CA, in immature HIV^eCFP/eYFP particles (HIV-1 NL4-3); test: FRET or BRET; stopped-flow; dual-labeled particles mixed with 0.05% TX-100 in PBS at 25°C, excitation 436 nm, long pass filter 515 nm; five to six traces averaged; single or double exponential fits of the FRET decay
[2] = target: MA-CA.FP: uncleaved MA-CA Gag derivative carrying eCFP or eYFP, in HIV^eCFP/eYFP particles of the MA-CA cleavage site variant (HIV-1 NL4-3); test: as above
[3] = target: MA-SP1.FP: uncleaved MA-CA-SP1 Gag derivative carrying eCFP or eYFP, in HIV^eCFP/eYFP particles of the MA-SP1 cleavage site variant (HIV-1 NL4-3); test: FRET or BRET; cuvette-based; dual-labeled particles in PBS at 25°C, 0.05% TX-100 added at t = 0 to strip the lipid envelope; emission at 528 nm (excitation 433 nm) followed at 1 s resolution, or spectra after 15 min; normalized to the signal before detergent
[4] = target: MA-SP1.FP: uncleaved MA-CA-SP1 Gag derivative carrying eCFP or eYFP, in HIV^eCFP/eYFP particles of the MA-SP1 cleavage site variant (HIV-1 NL4-3); test: FRET or BRET; stopped-flow; dual-labeled particles mixed with 0.05% TX-100 in PBS at 25°C, excitation 436 nm, long pass filter 515 nm; five to six traces averaged; single or double exponential fits of the FRET decay
[5] = target: MA.FP: HIV-1 matrix protein (MA) carrying eCFP or eYFP, in mature HIV^eCFP/eYFP particles (HIV-1 NL4-3); test: as above

Gag.FP: unprocessed HIV-1 Gag polyprotein carrying eCFP or eYFP between MA and CA, in immature HIV^eCFP/eYFP particles (natural protein)
k1, rate constant of FRET decay (single exponential) [1]: 0.018 s⁻¹

MA-CA.FP: uncleaved MA-CA Gag derivative carrying eCFP or eYFP, in HIV^eCFP/eYFP particles of the MA-CA cleavage site variant (domain or fragment)
k1, rate constant of FRET decay (fast phase, double exponential) [2]: 0.127 s⁻¹ | k2, rate constant of FRET decay (slow phase, double exponential) [2]: 0.0082 s⁻¹

MA-SP1.FP: uncleaved MA-CA-SP1 Gag derivative carrying eCFP or eYFP, in HIV^eCFP/eYFP particles of the MA-SP1 cleavage site variant (domain or fragment)
plateau of the FRET signal after detergent, % of the initial value [3]: 75% | k1, rate constant of FRET decay (fast phase, double exponential) [4]: 0.129 s⁻¹ | k2, rate constant of FRET decay (slow phase, double exponential) [4]: 0.0078 s⁻¹

MA.FP: HIV-1 matrix protein (MA) carrying eCFP or eYFP, in mature HIV^eCFP/eYFP particles (natural protein)
k1, rate constant of FRET decay (single exponential) [5]: 0.099 s⁻¹
